According to patent US20180230225A1 (LEGEND BIOTECH USA, published 2018):
Where a chain is given by its changes, count along the chain named.

T1: recombinant human BCMA protein having a C-terminal Fc tag (ACRO Biosystems, Cat No.: BC7-H5254) (human, UniProt Q02223 1-54)
T1 construct: Bought protein; Clones were also screened on CHO cells expressing human BCMA (CHO-BCMA); also called CD269; not shown: C-terminal Fc tag
T1 sequence (looked up): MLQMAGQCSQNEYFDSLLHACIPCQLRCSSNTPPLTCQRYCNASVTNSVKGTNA

T2: recombinant human CD38 protein having a C-terminal His tag (ACRO Biosystems, Cat No.: CD8-H5224) (human, UniProt P28907 43-300)
T2 construct: Bought protein; not shown: C-terminal His tag
T2 sequence (looked up): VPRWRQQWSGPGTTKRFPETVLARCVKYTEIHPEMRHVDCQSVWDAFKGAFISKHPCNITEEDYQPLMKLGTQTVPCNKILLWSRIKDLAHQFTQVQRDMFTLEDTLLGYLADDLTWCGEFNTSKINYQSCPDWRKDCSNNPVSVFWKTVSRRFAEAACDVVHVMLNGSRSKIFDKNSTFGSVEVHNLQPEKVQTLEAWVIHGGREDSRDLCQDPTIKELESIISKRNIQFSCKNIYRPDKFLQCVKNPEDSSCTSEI

B1: 269A37915 (VHH)
VHH: EVQLVESGGGLVQAGGSLRLSCAASGRTFSSIVMGWFRQAPGKEREFVGAIMWNDGITYLQDSVKGRFTIFRDNAKNTVYLQMNSLKLEDTAVYYCAASKGRYSEYEYWGQGTQVTVSS
notes: Llama VHH from an immune phage library; also called anti-BCMA sdAb
B2: 269A37953 (VHH)
VHH: B1 VHH with L11M, G16D, A23V, A24Q, G26T, R27Y, F29V, S30N, I32D
notes: as for B1
B3: 269A37355 (VHH)
VHH: AVQLVDSGGGLVQPGGSLRLSCVASGGIFVINAMGWYRQAPGKQRELVASIRGLGRTNYDDSVKGRFTISRDNANNTVYLQMNSLEPEDTAVYYCTVYVTLLGGVNRDYWGQGTQVTVSS
notes: as for B1
B4: 269A37936 (VHH)
VHH: EVQLVESGGGVVQAGGSLTVSCTASGFTFDRAVIVWFRQAPGKGREGVSFIKPSDGTIYYIDSLKGRFTISSDIAKNTVYLQMKSLESEDSAVYYCAASPEDWYTDWIDWSIYRWQHWGQGTQVTVSS
notes: as for B1
B5: 269A37965 (VHH)
VHH: AVQLVESGGGLVQAGDSLRLSCTASGATLTNDHMAWFRQAPGKGREFVAAIDWSGRTTNYADPVEGRFTISRNNAKNTVYLEMNSLKLEDTAVYYCAVLRAWISYDNDYWGQGTQVTVSS
notes: as for B1
B6: 269A37948 (VHH)
VHH: AVQLVESGGGLVQAGDSLRLTCTASGRAFSTYFMAWFRQAPGKEREFVAGIAWSGGSTAYADSVKGRFTISRDNAKNTVYLQMNSLKSEDTAVYYCASRGIEVEEFGAWGQGTQVTVSS
notes: as for B1
B7: 269A37972 (VHH)
VHH: QVQLVESGGGLVQAGGSLRLSCAASGGTLSKNTVAWFRQAPGKERGFVASITWDGRTTYYADSVKGRFTISRDNAKNTVYLQMNSLKPEDTAVYVCADLGKWPAGPADYWGQGTQVTVSS
notes: as for B1
B8: 38A37731 (VHH)
VHH: QVKLEESGGGLVQAGGSLRLSCVASGTIVSISTMGWYRQAPGKQRELVATITRRGRTNYTDSVKGRFTISRDNAKNTVYLQMNSLKPEDTAVYYCNAEVQLDIWASAYDYWGQGTQVTVAS
notes: Llama VHH from an immune phage library; also called anti-CD38 sdAb
B9: 38A37334 (VHH)
VHH: EVQLVESGGGLVQAGGSLRLSCAASGLTFSSYIMGWFRQAPGEERELVAEISSGGMTSYADSVKGRFTISRDNAKKTGYLQMNSLKPEDTAVYYCAAPERGSIWYSRYEYKYWGQGTQVTVSS
notes: as for B8
B10: 38A37699 (VHH)
VHH: QVQLVESGGGLVQAGGSLRLSCAASGRIFSINAMGWYRQAPGKQRELVAAISTAGSTNYGDSVKGRFTISRDNAKNTVYLQMNSLKPEDTAVYYCNLNFPPYVYWGQGTQVTVSS
notes: as for B8
B11: 38A37331 (VHH)
VHH: QVKLEESGGGLVQPGESLRLSCSASGSIFKVFRVFAMSWYRQGPGKQRELVASISSGETTTYADSVKGRFTISRDNAKNTAYLQMDSLKPEDTAVYYCNADHTFTGDFWGQGTQVTVSS
notes: as for B8
B12: 38A37336 (VHH)
VHH: EVQLVESGGGLVQPGGSLRLSCAASGFTFSSNWMYWVRQAPGKGLEWVATISTDGRGTYYKDSVKGRFTVSRDNAMSTLLLQMNNLKSEDTAVYYCAKEPRVLMAYLRNLGDFGSWGQGTQVTVSS
notes: as for B8
B13: 38A37326 (VHH)
VHH: EVQLVESGGGLVQAGGSLRLSCAASGRTYAMGWYRQAPGKQRDLVATISGAGNTKYADSVKGRFTISRDNAKNTMYLQMNSLKPEDTAVYYCAAGKWFPAANEYWGQGTQVTVSS
notes: as for B8
B14: 38A37330 (VHH)
VHH: QVQLVESGGGLVQAGDSLRLSCAASGRAYATMAWFRQAPGKEREFVAHLRVSGDTTYYTDSVKGRFTISRDNAKNTAYLQMNMLKPEDTAVYYCAAGPYGILAAARVSNPGNYDYWGQGTQVTVSS
notes: as for B8
B15: 38A37340 (VHH)
VHH: DVQLVESGGGLVQAGDSLRLSCAASGRTFSSYAMAWFRQAPGKEREIVSSISTSGGITDYADSVKGRFTISKDSAKMNTVYLQMNSLEPEDTAVYYCAARTWYLRTSLQYDYWGQGTQVTVSS
notes: as for B8
B16: 38A37719 (VHH)
VHH: QVKLEESGGGSVQTGGSLRLSCAASASIFTRLPMGWYRQAPGKQRELVVGIVPSGRINYADSVKGRFTISRDNAKNTVYLQMNSLRPEDTAVYYCRADTFPLPTWGQGTQVTVSS
notes: as for B8
B17: 38A37333 (VHH)
VHH: DVQLVESGGGLVQPGGSLRLSCVASGLTFSSYPMMWVRQAPGKGLEWVSRISDSGGYTNYDDSVKGRFTISRDNAKNTLYLQMNSLTPEDTAVYYCRILGLPTTGQGTQVTVSS
notes: as for B8

These binders were tested against T1, recombinant human BCMA protein having a … (assay: phage ELISA: plate coated with recombinant human BCMA protein (Fc control protein in parallel) or CHO-BCMA cells; phage supernatant, HRP anti-M13, A450).
Description: Phage ELISA was performed to identify clones specific to the target antigens. Individual output phage clones were grown in 96-deep-well plate and rescued by M13KO7 helper phage overnight. To identify clones that bind to antigen proteins, 96-well ELISA microtiter plates were coated with recombinant human BCMA protein and Fc control protein respectively in coating buffer overnight at 4° C., and the plates were then blocked with blocking buffer. After blocking, approximately 50 μl per well of phage supernatant from the overnight cell culture was added to the plates for 1.5-hour incubation at 4° C. The plates were washed four times, and the HRP-conjugated anti-M13 monoclonal antibody was added to the plates for 45-minute incubation at 4° C. The plates were again washed five times and substrate solution was added to the wells for developing. Absorption at 450 nm was measured for each well.
To identify clones that bind CHO-BCMA cells, the CHO-BCMA cells were blocked with blocking buffer at room temperature for 1 hour. After blocking, approximately 20 μl per well of phage supernatant from the overnight cell culture was added to the cell solutions for 1-hour incubation at room temperature. After the cells were washed 4 times, the HRP-conjugated anti-M13 monoclonal antibody was added for 30-minute incubation at room temperature. The cells were washed five times and substrate solution was then added for developing. The absorption was measured at 450 nm.

Binder	binding result
B1	binds
B2	binds
B3	binds
B4	binds
B5	binds
B6	binds
B7	binds

What follows are binders tested against T2, recombinant human CD38 protein having a … (assay: phage ELISA on the recombinant antigen, by a process similar to the one described for BCMA).

Binder	binding result
B8	binds
B9	binds
B10	binds
B11	binds
B12	binds
B13	binds
B14	binds
B15	binds
B16	binds
B17	binds
